The results in this text go back to publication PMC12781765.

The target in assay [1] is T1, Venus-tagged Gβ3γ9, P16520;O14610.
T1 chain 1: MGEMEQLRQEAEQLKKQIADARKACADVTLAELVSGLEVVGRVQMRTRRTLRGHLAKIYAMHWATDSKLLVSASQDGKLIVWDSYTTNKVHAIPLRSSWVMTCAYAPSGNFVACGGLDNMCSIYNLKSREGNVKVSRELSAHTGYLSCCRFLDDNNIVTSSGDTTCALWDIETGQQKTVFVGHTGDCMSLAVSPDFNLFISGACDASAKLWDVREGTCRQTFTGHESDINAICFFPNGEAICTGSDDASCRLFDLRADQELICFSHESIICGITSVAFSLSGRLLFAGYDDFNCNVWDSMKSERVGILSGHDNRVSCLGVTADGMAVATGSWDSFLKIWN
T1 chain 2: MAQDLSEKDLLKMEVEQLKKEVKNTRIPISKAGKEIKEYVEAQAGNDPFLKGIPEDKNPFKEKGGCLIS
Nature of the assay: BRET-based Gβ3γ9 displacement assay (competition with GαoG92-NLuc). Particulars: chain shown with the change; n = 3; parent: est. 100; read off a plot. In general terms: Bioluminescence resonance energy transfer reports proximity on the nanometre scale.

The next assay deals with T2, GFP-Ric8A, Q9NPQ8.
T2 chain: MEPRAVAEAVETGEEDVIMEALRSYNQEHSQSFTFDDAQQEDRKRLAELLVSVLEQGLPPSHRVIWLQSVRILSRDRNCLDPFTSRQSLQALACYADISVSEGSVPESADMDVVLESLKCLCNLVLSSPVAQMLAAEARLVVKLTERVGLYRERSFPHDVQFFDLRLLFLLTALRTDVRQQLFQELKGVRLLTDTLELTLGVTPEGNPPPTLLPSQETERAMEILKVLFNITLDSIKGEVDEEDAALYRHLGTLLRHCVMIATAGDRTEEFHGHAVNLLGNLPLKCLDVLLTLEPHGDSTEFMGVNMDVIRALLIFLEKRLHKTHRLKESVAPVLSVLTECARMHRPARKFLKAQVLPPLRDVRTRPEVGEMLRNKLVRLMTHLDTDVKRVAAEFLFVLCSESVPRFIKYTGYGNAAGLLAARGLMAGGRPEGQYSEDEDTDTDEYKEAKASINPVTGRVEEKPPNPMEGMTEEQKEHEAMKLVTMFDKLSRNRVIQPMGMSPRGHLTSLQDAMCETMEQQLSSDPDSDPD
As to the kind of experiment: co-immunoprecipitation (GFP nanobody IP, Western blot quantification). The note with it: chain shown with the change; HEK293T cells; n = 4; parent: est. 1.0; read off a plot.

In assay [2] the target is GFP-Gβ1γ3 (GFP-tagged Gβ1 and GFP-tagged Gγ3), P62873;P63215. Described as above. The note with it: chain shown with the change; HEK293T cells; n = 4; parent: est. 1.0; read off a plot.
Sequence of GFP-Gβ1γ3 (GFP-tagged Gβ1 and GFP-tagged Gγ3), P62873;P63215 (chain, as listed by the source, chain 1 of 2): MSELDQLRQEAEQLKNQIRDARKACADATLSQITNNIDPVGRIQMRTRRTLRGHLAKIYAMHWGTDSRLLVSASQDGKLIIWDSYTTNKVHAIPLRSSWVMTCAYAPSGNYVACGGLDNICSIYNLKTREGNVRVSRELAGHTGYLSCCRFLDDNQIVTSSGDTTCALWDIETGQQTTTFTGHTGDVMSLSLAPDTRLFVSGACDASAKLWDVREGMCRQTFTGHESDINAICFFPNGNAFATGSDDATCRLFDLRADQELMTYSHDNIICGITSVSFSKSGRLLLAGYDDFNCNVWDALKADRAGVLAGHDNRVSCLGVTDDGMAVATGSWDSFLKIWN
Sequence of GFP-Gβ1γ3 (GFP-tagged Gβ1 and GFP-tagged Gγ3), P62873;P63215 (chain, as listed by the source, chain 2 of 2): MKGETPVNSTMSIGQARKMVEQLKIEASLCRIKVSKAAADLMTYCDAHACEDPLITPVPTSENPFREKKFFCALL

B1: Gαo wild-type (non-tagged), P09471-1 L39_G40insV (protein)
chain: MGCTLSAEERAALERSKAIEKNLKEDGISAAKDVKLLLLVGAGESGKSTIVKQMKIIHEDGFSGEDVKQYKPVVYSNTIQSLAAIVRAMDTLGIEYGDKERKADAKMVCDVVSRMEDTEPFSAELLSAMMRLWGDSGIQECFNRSREYQLNDSAKYYLDSLDRIGAADYQPTEQDILRTRVKTTGIVETHFTFKNLHFRLFDVGGQRSERKKWIHCFEDVTAIIFCVALSGYDQVLHEDETTNRMHESLMLFDSICNNKFFIDTSIILFLNKKDLFGEKIKKSPLTICFPEYTGPNTYEDAAAYIQAQFESKNRSPNKEIYCHMTCATDTNNIQVVFDAVTDIIIANNLRGCGLY
As to B1, the percent of parent (% of Gαo wild-type) in assay [1] was found to be 30. Besides, the ratio to parent (folds over Gαo wild-type) in the assay with GFP-Ric8A, Q9NPQ8 is 6.2; in assay [2] it was 0.29.
